{"source": "the nanobody polyreactivity screen of Harvey et al. (2022)"}
{"experiment": "yeast display, Sf9 membrane polyspecificity reagent, FACS + sequencing; frameworks hold sequencing errors", "how_it_was_run": "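In a synthetic yeast display library (Saccharomyces cerevisiae BJ5465), nanobody expression was induced with galactose for 36–48 hours. FACS gates were set low and high (top ~1%) using anti-HA fluorescence for expression and streptavidin fluorescence for binding of the Sf9 membrane reagent. Each polyreactivity label is drawn from the gate of origin.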"}
{"sequence": "QVQLVESGGGLVQAGGSLRLSCAASGYTFGYYAMGWYRQAPGKERELVAAISLNGGSTYYADSVKGRFTISRDNAKNTVYLQMNSLKPEDSAVYYCNALYNYAEIYGRGYCGQGTQVTVSS", "polyreactivity (PSR sort gate)": "high polyreactivity"}
{"sequence": "QVQLVESGGGLVQEGGSLRLICAASGFIFRYYAMGWYRQAPGKERELVAAISRSGGSTSYADSVKGRFTISRDNAKITGDFQMNSLKPEDSAVYYCAKYVAFHYKQYDFNWGQGTQVYVSS", "polyreactivity (PSR sort gate)": "high polyreactivity"}
{"sequence": "QVQLVESGGGLVQAGGSLRLSFAASGSIFGPYVMGWYRQAPGKERELVAAISKSGGSTYYADSVKGRFTISRDNAKNTVYLQMNSLKPEDTAVYYCATDYLGGGKRYYYWGQGTQVTVSS", "polyreactivity (PSR sort gate)": "high polyreactivity"}
{"sequence": "QVQLVESGGGLVQAGGSLRLSCAASGYTFPLYAMGWYRQAPGKERELVADINIGGASTYYADSVKGRFTISRDNAKNTVYLQMNSLKPEDTAVYYCAADSRKRQGYGYWGQGTQVTVSS", "polyreactivity (PSR sort gate)": "low polyreactivity"}
{"sequence": "QVQLVESGGGLVQAGGSLRLSCAASGSTFSFYDMGWSRQAPGKERELVAAITGSGGTTYYADSVQGRFTISRDNAKNTVYFQMNSLKPEDTAVYFCAADSLESYPDYEYDFWGQGTQVTVSS", "polyreactivity (PSR sort gate)": "low polyreactivity"}
{"sequence": "QVQLVESGGGLVQAGGSLRLSCAASGRTFRNYAMGWYRQAPGKERELVAGITYSGGSTFYADSVKGRFTISRDNAKNTVYLQMNSLKPEDTAVYYCAAVYVQYYWLGRSRGLDYWGQGTQVTVSS", "polyreactivity (PSR sort gate)": "high polyreactivity"}
{"sequence": "QVQLVESGGGLVQAGGSLRLSCAASGSTFDSYGMGWYRQAPGKERELVASISSRGGSTYYADSVKGRFTLSRDNAKNTVYFQMNSLKPEDTAVYYCAAKGPRRWGSGFDYWGQGTQVTVSS", "polyreactivity (PSR sort gate)": "low polyreactivity"}
{"sequence": "QVQLVESGGGLVQAGGSLRLSCAASGSIFYGYAMGWYRQAPGTERELVAALSWSDGITYYADSVKGRFTISRDNGKNTGYLQMKNLKPEDTAVYSCAAEYGQYGYDYWGKGTQVTVSS", "polyreactivity (PSR sort gate)": "high polyreactivity"}
{"sequence": "QVQLVESGGGLVQAGGSLRLSCAASGRTFYANAMGWYRQAPGKERELVAAISSRSGTTHYAHSVKGRFTISRDNAKNTVYLQMNSLKPEDTAVYYCAADSCDLYVWGYDHWGQGTQVTVSS", "polyreactivity (PSR sort gate)": "low polyreactivity"}
{"sequence": "QVQLVESGGGLVQAGGSIRLSCAASGLTLIVNSMGWYRQAPGKERDLVASITIGGTTYADSVKGRFTISRDNAKNTVYLQMNSLKTEVTAVYYCAADYSSFSIDTGYDYWGQGTQVTVSS", "polyreactivity (PSR sort gate)": "low polyreactivity"}
{"sequence": "QVQLVESGGGLVQAGGSLRLSCAASGSTFVYYAMGWYRQAPGKERELVAAMTSSGGRTYYADSVKGRFTISRDNAKNTVYLQMNSLKPEDTAVYYCATPSTRLYSVTSQGYGYWGQGTQVTVSS", "polyreactivity (PSR sort gate)": "high polyreactivity"}
{"sequence": "QVQLVESGGGLVQAGGSLRLSCAASGITIVNYVMGWYRQAPGKERELVAAISLGGGTYYADSVKGRFTISRDNAKNTVYLQMNSLKADDTAVYYGNASYGGLAFYIGVYVTGYDYWRQGTQVTVSS", "polyreactivity (PSR sort gate)": "low polyreactivity"}
{"sequence": "QVQLVESGGGLVQAGGSLRLSCAASGFILSGYAMGWYRQAPGKERELVAVISGGGRTYYADSVKGRFTISRDNAKNTVYLQMNSLKPEDTAVYYCARPRTRQGDYWGQGTQVTVSS", "polyreactivity (PSR sort gate)": "high polyreactivity"}
{"sequence": "QVQLVESGGGLVQAGGSLRLSCAASGRIFGYYAMGWYRQAPGKERELVAAISWSGGRTYYADSVKGRFTISRDNAKNTVYLQMNSLKPEDTAVYYCNKVYRVPITEEYDYWGQGTQVTVSS", "polyreactivity (PSR sort gate)": "high polyreactivity"}
{"sequence": "QVQLVESGGGLVQAGGSLRLSCAASGYIFLTNAMGWYRQAPGKEREWVAAISVSGGRTYYADSVKGRFTISRDNAKNTVYLQMNSLKPEDTAVYYCNTLLTYGYDYWGQGTQVTVSS", "polyreactivity (PSR sort gate)": "low polyreactivity"}
{"sequence": "QVQLVESGGGLVQAGGSLRLICAASGLTFGWYAMGWYRQAPGKERELVAAITYDGDSTYYADSVKGRFTISRDNAKNTVYLQMNSLKPEDTAVYYCAAEYGYGEMDSWGQGTQVTVSS", "polyreactivity (PSR sort gate)": "high polyreactivity"}
{"sequence": "QVQLVDSGGGLVQAGGSLRLSCASSGNTFAGNARGWYRQAPGTERELVAAISRSGVTTRYADSVKGRFTISRDNAKNTVYLQMNSLKQEDTAVYYCNADPRLRQTRDYWGHGTQVTVSS", "polyreactivity (PSR sort gate)": "high polyreactivity"}
{"sequence": "QDQLVESGGGLVQAGGSLRLSCAASGFILKPNAMGWYRQAPGKERELVAAISWSSGSPDYADSVKGRFTISRDNAKNTVYLQMNSLKPEDTAVYYCAADYFVYPDDWYDYWGQGTQVTVSS", "polyreactivity (PSR sort gate)": "low polyreactivity"}
{"sequence": "QVQLVESGGGLVQAGGSLRLSCAASGFIFGINAMGWYRQAPGKERELVAAISKRTGSTYYADSVKGRFTISRDNAKNTVYLQMNSLKPEDTAVYYCNVVRYNGLDKYDYWGQGTQVTVSS", "polyreactivity (PSR sort gate)": "high polyreactivity"}
{"sequence": "QVQLVESGGGLVQAGGSLRLSCAASGSIFTTNAMGWYRQAPEKERELVATITWSDGSTYYADSVKGRFTISRDNAKNTVYLQMNSLKPEDTAVYYCATPYKRYFYKGGDYWGQGTQVSVSS", "polyreactivity (PSR sort gate)": "low polyreactivity"}
{"sequence": "QVKLVESGGGLVQAGGSLRLSCAASGSTFLIYAMGWYRQAPGKERELVAAITVSGGDTYYADSVKGRFTISRDNAKNTVYLQMNSLKPEDTAVYYCAAEGGNDYSSVDAGISYDYWGQGTQVTVSS", "polyreactivity (PSR sort gate)": "low polyreactivity"}
{"sequence": "QVQLVESGGGLVQAGGSLRLSCAASGITFVAYAMGWYRQAPGKERELVAAISGGGGSTYYADSVKGRFTISRDNAKNTVYLQMNSLKPEDTAVYYCAGVYTYPLGYYHYTYDYWGQGTQVTVSS", "polyreactivity (PSR sort gate)": "low polyreactivity"}
{"sequence": "QVQLVESGGGLVQAGGSLRLSCAASGITFSRYAMGWYRQAPGKERELVAAITVSGGTTYYADSVKGRFTISRDNAKNTVYLQMNSLKPEDTAVYYCAAVRRKTAGGLEDYWGQGTQVTVSS", "polyreactivity (PSR sort gate)": "high polyreactivity"}
{"sequence": "QVQLVESGGGLVQAGGSLRLSCAASGSIFDYNGMGWYRQAPGKERELVATITLSTARTYYADSVKGRFTISRDNAKNTVYLQMNSLKPEDTAVYYCATRYPKFRRRNYWGQGTQVTVSS", "polyreactivity (PSR sort gate)": "high polyreactivity"}
{"sequence": "QVQLVESGGALVQAGGSHRLSCAASGIIFDYNAAMGWYRQAPGKERELVAAISISGGSTYYADSVKGRFTISRDNAKNTVYLQMNSPKPEDTAVSYCAAVNYEWNYGYDYWGPGTQVTVSS", "polyreactivity (PSR sort gate)": "low polyreactivity"}
{"sequence": "QDQLVDSGGGLVQAGGSLRLRCGASGRILAWYAMGWYRQAPGKEREFVAGNTGSVGSTYYADSVKGRFTNSRDNEKNTVDLQMNSLKPEDTAVYYCYNEWDSTSGQKHYYWGQGTQVTVSS", "polyreactivity (PSR sort gate)": "low polyreactivity"}
{"sequence": "QVQHVESGGGLVQAGGSLRLSCAASGRIFGSYAMVGYIQAPGKETELDAAIRWSGGNTYYADSVKGRFTITRDNAKNTVYFQMNSLKPEDTAVYYCNARTARSYSKTSYRFSSYNYWGQGTQVTVSS", "polyreactivity (PSR sort gate)": "high polyreactivity"}
{"sequence": "QVQLVESGGGLVQAGGSLRLSCAASGRITYYAMGWYRQAPGKERELVAAITWSGGRTYYADSVKGRFTISRDNAKNTVYLQMNSLKPEDTAVYYCAKTRIYSKHWTEPYFYRVDSWGQGTQVTVSS", "polyreactivity (PSR sort gate)": "high polyreactivity"}
{"sequence": "QVQLVESGGGLVQAGGSLRLSCAASGFIFRPYAMGWYRQAPGKERELVAALTGGGSTYYADSVKGRFTISRDNAKNTVYLQMNSLKPEDTAVYYCNADRRRRSGGFAAWHFQRNDYWGQGTQVSVSS", "polyreactivity (PSR sort gate)": "low polyreactivity"}
{"sequence": "QVQLVESGGGLVQAGGSPLLSCAASGSIFPSYDMGWYRQAPGKERELVAPLSWSGSTTYSADSVKGRFTISRDNAKNTVSLQMNSLKPEDTAVYYCAVDSNPPDWWAVIYGYWGQGTQVTVSS", "polyreactivity (PSR sort gate)": "low polyreactivity"}
{"sequence": "QVQLVESGGGLVQAAGSVRLSCAASGITFTQYAMGRYRHAPGKESECVAGITFSGSSTYYADSVKGRFTISRDNSKNTVYLQMNSLKPEDTAVYYCAAESWYKYIYGYPRLFDYWGQATQVTVSS", "polyreactivity (PSR sort gate)": "low polyreactivity"}
{"sequence": "QVQLVESGGGLVQAGGSLRLSCAPSGLTFTTYAMGWYRQAPGKERELVAAISRRGSRTYYADSVKGRFTISRDNAKNTVYLQMNSLKPEDTAVYYCNALTGSFKTYSFDYWGQGTQVTVSS", "polyreactivity (PSR sort gate)": "high polyreactivity"}
{"sequence": "QVHLVESGGGLVQAGGSLRLSCAASGRIYTGNTMVWYRQAPGKEREFVAAISGSGGRTFYADSVKGRFTISRDNEKNTVYLQMNSLKPEDTAVYYCAARRYRSLGSYGTGSFSYNYWGQGTQVTVSS", "polyreactivity (PSR sort gate)": "high polyreactivity"}
{"sequence": "QVHLVESGGGLVQAGGSLRLSCAASGSNFVGNAMGWYRQAPGKERELVATISNSGGRTYYADSVKGRFTISRDNAKNTVYLQMNSLKPEDTAVYYCAADHPAFGPGYSFDFWGQGTQVTVSS", "polyreactivity (PSR sort gate)": "low polyreactivity"}
{"sequence": "QVQLVESGGGLVQAGGSLRLSCAASGTFPVYTMGWYRQAPGKERELVAAISRNGGSTYYADSVKGRFTISRDNAKNTVYLQMNSLKPEDTAVYYCAAVKVKRPGMDYWGQGTQVTVSS", "polyreactivity (PSR sort gate)": "high polyreactivity"}
{"sequence": "QVQLVESGGGLVQAGGSLRLSCAATGLNFAYNAMGWYRQAPGKERELVAAITGGGDGTYYADSVKGRFTISRDNAKNTVYLQMNSLKPEDTAVYYCADDYKYVGSEYGYWGQGTQVTVSS", "polyreactivity (PSR sort gate)": "low polyreactivity"}
{"sequence": "QVQLVESGGGLVQAGGSLRLSCAASGSILYVYAMGWYRQAPGKERELVATITGRVVSTNYADSVKGRLTISRDNAKNTVYLQMNSLKPEDTAVYYCAARTRRRRGEYDYWGQGTQVTVSS", "polyreactivity (PSR sort gate)": "high polyreactivity"}
{"sequence": "QVQLVESGGGLVQAGGSLRLSCAASGFILDYNAMGWYRQAPGKERELVAAITSGGSTNYADSVKGRFTISRDNAKNTVYLQMNSLKPEDTAVYYCNVRSVSPVHDDGSWGQGTQVTVSS", "polyreactivity (PSR sort gate)": "low polyreactivity"}
{"sequence": "QVQLVESGGGLVQAGGSLRLSCSASGSIFGFYAMGWYRQAPGKERELVAAIDSGDSTNYADSVKGRFTISRDHAKNTVYLQMNSQKPEDSAVYYCNAEAWWYFWFDYWGQGTQVTVSS", "polyreactivity (PSR sort gate)": "low polyreactivity"}
{"sequence": "QVQLVESGGGLVQAGGSLRLSSAASGLTFFTYTMGWYRQAPGKERELVATINSSGGTTYYADSVKGRFTISRDNAKNTVYLQMNSLKPEDTAVYFCAKRFSPRYYYWGQGTQVTVSS", "polyreactivity (PSR sort gate)": "high polyreactivity"}
{"sequence": "QVQLVESGGGLVQAGGTLRLSCAASGPMFTLNAMGWYRQAPGKERELVAAINRGGSTYYADSVRGRFTISRDNAKNTVYLQMNSLKPEDTAVYYCAARRRQGGHDYWGQGTQVTVSS", "polyreactivity (PSR sort gate)": "high polyreactivity"}
{"sequence": "QVQLEESGGGLVQAGGRLRLSCAASGFTFGRYTMGWYRHAPGKERELVAAITWTGGRTYYADSVKGRFTISRDNAKNTVYLQMNSLKPEDTAVYYCAADTTIIIAQSEDDLWGQGTQVTVSS", "polyreactivity (PSR sort gate)": "high polyreactivity"}
{"sequence": "QVQLVESGGGLVQAGGSHRLSCAASGSNIRFYAMGWYRQAPGKEREFVAAITSSGGNTYYADSVKGRFTISRDNAKNSVYLHMNSLKPEDTAVYYCAARYYGYGFDYWGQGTQVTVSS", "polyreactivity (PSR sort gate)": "high polyreactivity"}
